One substance from paper PMC9492775 can be followed below.

This experiment addresses C3 degradation products deposited on the bacterial surface (human) (UniProt P01024). The experiment is described as follows: flow cytometry on cells; S. aureus JE2Δsbi spa::Tn opsonised in 10% NHS, incubated with polyclonal anti-human C3d antibody or not, washed, then probed with biotin-labelled Sbi-IV and streptavidin-AF488; gMFI. On the technique in general: In flow cytometry, cells or beads pass a laser one at a time.
UniProt P01024, sequence (P01024 23-1663): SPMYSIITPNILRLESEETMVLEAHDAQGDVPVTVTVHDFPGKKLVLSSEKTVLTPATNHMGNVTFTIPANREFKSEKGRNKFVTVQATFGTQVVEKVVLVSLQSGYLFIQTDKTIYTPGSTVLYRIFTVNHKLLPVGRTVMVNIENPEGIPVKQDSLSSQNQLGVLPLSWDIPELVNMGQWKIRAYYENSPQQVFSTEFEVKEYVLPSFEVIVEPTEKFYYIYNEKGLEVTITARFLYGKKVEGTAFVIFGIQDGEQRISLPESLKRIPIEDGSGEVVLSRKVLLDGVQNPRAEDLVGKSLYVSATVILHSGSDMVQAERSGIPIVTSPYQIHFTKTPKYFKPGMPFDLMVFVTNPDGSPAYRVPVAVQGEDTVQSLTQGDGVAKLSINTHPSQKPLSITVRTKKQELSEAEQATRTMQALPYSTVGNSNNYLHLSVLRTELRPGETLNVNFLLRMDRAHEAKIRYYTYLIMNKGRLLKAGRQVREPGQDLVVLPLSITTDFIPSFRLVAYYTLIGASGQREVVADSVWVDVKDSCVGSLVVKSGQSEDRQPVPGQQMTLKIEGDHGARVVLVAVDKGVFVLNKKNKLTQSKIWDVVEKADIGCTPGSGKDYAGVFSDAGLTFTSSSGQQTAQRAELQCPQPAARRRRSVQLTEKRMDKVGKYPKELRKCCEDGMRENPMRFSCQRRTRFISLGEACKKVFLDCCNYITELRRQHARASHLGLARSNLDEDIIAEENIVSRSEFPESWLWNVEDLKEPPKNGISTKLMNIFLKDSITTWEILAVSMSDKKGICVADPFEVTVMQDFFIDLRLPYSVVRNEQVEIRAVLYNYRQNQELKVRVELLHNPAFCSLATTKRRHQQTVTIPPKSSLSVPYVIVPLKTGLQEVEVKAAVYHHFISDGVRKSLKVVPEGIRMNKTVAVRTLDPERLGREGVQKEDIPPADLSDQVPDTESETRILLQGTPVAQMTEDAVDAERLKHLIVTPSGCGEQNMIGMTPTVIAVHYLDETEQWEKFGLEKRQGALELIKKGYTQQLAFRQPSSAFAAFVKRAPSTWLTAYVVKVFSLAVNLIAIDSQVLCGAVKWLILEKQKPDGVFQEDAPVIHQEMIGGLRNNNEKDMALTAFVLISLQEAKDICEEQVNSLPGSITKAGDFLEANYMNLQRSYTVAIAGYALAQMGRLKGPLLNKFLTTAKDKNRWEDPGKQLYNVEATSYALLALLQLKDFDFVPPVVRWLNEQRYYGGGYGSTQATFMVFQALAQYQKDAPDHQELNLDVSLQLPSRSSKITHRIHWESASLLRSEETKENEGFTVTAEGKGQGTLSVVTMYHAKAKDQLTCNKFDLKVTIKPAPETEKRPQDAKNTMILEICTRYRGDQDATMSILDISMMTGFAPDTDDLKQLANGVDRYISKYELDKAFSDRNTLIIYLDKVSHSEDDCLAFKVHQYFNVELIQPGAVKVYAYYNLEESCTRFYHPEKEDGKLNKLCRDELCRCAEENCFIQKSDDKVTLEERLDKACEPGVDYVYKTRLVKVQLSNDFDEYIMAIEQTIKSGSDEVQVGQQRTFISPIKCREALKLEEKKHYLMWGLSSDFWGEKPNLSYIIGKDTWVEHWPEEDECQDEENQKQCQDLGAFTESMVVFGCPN

In the case of “biotin-labelled Sbi-IV (complement C3 binding domain IV of the staphylococcal Sbi protein) (from UniProt Q931F4 198-266) (domain or fragment)”, the percent reduction of binding after polyclonal anti-C3d antibodies stood at 50%.
